Measurements taken from the DeepSol protein solubility set.

Assay: soluble on expression in E. coli; label from the status in PepcDB or PDB records

Row | Sequence | soluble on expression in E. coli
1 | SFLNGNCLETLKKKEPEGGRRRLSHPGNMGWMRPSQETTPPDRSHHSGFGLFCGDPGPEIEPFSLWVFPQEMVLEIHQLFMDHEYPCHHITSHCTWVAAHWTTSQSCAAWQGCRRACCSTWWKSPAQCTRPTVMSATFETAQEPGPS | soluble
2 | SGMYKIILNQTARYFAKFAPDNEQNILWGLPLQYGWQYRTGRLADPTRRTNCGYESGDHMCISVDSWWADLNYFLSSLPFLAAVDSGVMGISSDQVRLLPPPKNERKFCYDVSSCRSSFPETMNKWNTFYQYLQSPFSKFDDLLKYLWAAHTSTLADNIKSFEDRYDYYSKAEAHFERSWVLAVDHLAAVLFPTTLIRSYKFQKGMPPRILLNTDVAPFISDFTAFQNVVLVLLNMLDNVDKSIGYLCTEKSNVYRDHSESSSRSYGNNS | not soluble
3 | SGPLRDKVVIFIYWRENDLSIYLDLSGEPISRHGYRLNPWKAPMAETLAAGVIITSEWNPTTPFINPMCGSGTLAIEAALIGTHKIPGLVREDYAFQHIHGYVAETWKTMREMAQQKVLPALPFKIIASDHDQRALDAAKVNAEKAGVDHLIDFVLSDFQDTPVEENQAGVVILNPEYGERLGDEESLVLTYKEIGDFFKQKCGGYKGFVFTGNLELAKRIGLKPKRKIKFFSAKIECRLMQYELYSGTKRVVFKTE | not soluble
4 | SGRLHCTEDPVPEAVGGDMQQLNQLGAQQFSALTEVLFHFLTEQKEVERFLAQLSEFATTNQISLGSLRSIVKSLLLVPNGALKKSLTAKQVQADFITLGLSEEKATYFSEKWKQNTPTLARWAIGQTLMINQLIDMEWKFGVTSGSSELEKVGSIFLQLKLVVKKGNQTKNVYIELTLPQFYSFLHEMERVRTSMECFC | soluble
5 | SIMTVRTTHTEVEVHAGGTVELPCSYQLANDTQPPVISWLKGASPDRSTKVFKGNYNWQGEGLGFVESDSYKESFGDFLGRASVANLAAPTLRLTHVHPQDGGRYWCQVAQWSIRTEFGLDAKSVVLKVTGHTPSNNVHVSTAEVVQVDEGNDITMTCPCTDCANANVTWYTGPTFFENYETGTYQPLANKNQFGITWFSSEIAGRASFSGARNLVIRAAKITDAGRVWCELATGQGELDADRSSTILKV | soluble
6 | SIPWNLERITPPRYRADEYQPPDGGSLVEVYLLDTSIQSDHREIEGRVMVTDFENVPEEDGTRFHRQASKCDSHGTHLAGVVSGRDAGVAKGASMRSLRVLNCQGKGTVSGTLIGLEFIRKSQLVQPVGPLVVLLPLAGGYSRVLNAACQRLARAGVVLVTAAGNFRDDACLYSPASAPEVITVGATNAQDQPVTLGTLGTNFGRCVDLFAPGEDIIGASSDCSTCFVSQSGTSQAAAHVAGIAAMMLSAEPELTLAELRQRLIHFSAKDVINEAWFPEDQRVLTPNLVAALPPSTHGAGWQLFCRTVWSAHSGPTRMATAIARCAPDEELLSCSSFSRSGKRRGERMEAQGGKLVCRAHNAFGGEGVYAIARCCLLPQAACSVHTAPPAEASMGTRVHCHQQGHVLTGCSSHWEVEDLGTHKPPVLRPRGQPNQCVGHREASIHASCCHAPGLECKVKEHGIPAPQGQVTVACEEGWTLTGCSALPGTSHVLGAYAVDNTCVVRSRDVSTTGSTSEEAVTAVAICCRSRHLAQASQELQ | soluble
7 | SKAWLHQYSVVGRKIPTQEEPEPPIYRLKIFAPNVVNAKSRFWYFLRKLKRVKKSSGEILNISEIFEKKSTQVKNYGIWIRYKSRSDTINMYREYRDVTVNGAVEQMYKDMSGRHRARWSSIWVLKAMPVAAKDCRRSKVTQFHDSKIKFALPHMRPRAPLKKYNTPFKAKRPTTIVQ | soluble
8 | SKEHREIAKKIAQKSMVLLKNENILPFTPQEKIALVGPGAQSQDILGAWSWQGKKEEAISLVAGAQKLTTNLLVAQEPFDYFEPTAAAIEEALTLASQADKVVVALGETDWMSGEAASRSDIRLPEKQLAVVAQIIEKNPNVVVTVYSGRPLDLQGIDVAKGIVQAWQPGTEGGNALAEILWGQYNPSGRLSMSFPETVGQVPIFYNVDNTGRPYESAPEEKYVSKYLDVSNYAKYPFGFGLSYSHF | not soluble
9 | SKEIDISCVKIEQVIGAGEFGEVCSGHLKLPGKREIFVAIKTLKSGYTEKQRRDFLSEASIMGQFDHPNVIHLEGVVTKSTPVMIITEFMENGSLDSFLRQNDGQFTVIQLVGMLRGIAAGMKYLADMNYVHRALAARNILVNSNLVCKVSDFGLSRFLEDDTSDPTYTSALGGKIPIRWTAPEAIQYRKFTSASDVWSYGIVMWEVMSYGERPYWDMTNQDVINAIEQDYRLPPPMDCPSALHQLMLDCWQKDRNHRPKFGQIVNTLDKMIRNPNSLKAMAPLSS | soluble
10 | SKHKQSSFTKSCYPRGTLSQAVDALYIKAAWLKATIPEDRIKNIRLLKKKTKKQFMKNCQFQEQLLSFFMEDVFGQLQLQGCKKIRFVEDFHSLRQKLSHCISCASSAREMKSITRMKRIFYRIGNKGIYKAISELDILLSWIKKLLESSQ | soluble
11 | SKRAATLTDIKHIKQLDLSDHKSLEFARDIFLFSFYMRGMSFIDLAYLRKKDLNSGFVSYSRRKTGKKLIIRWEKQMQEIIDRYGDSETQYLLPIIEREDGTEHRQYRNKMLLVNRKLKKIAARAGLTTPLTMYVARHSWASIAKTKNISIGIISEAMGHDSETTTQIYLSSIQTNQIDNANRN | not soluble
12 | SLAGETINFCKGWKFHLGDAGKGASSSSYNDSQWRILNIPHDWSIEGTYKQFENGTDWQSGFLPAGISWYRKTFTIPSKWKNKKVQILFEGVYLNSEVWINGHWLGKRPNGYISFVYDLTPYLQEGKNQIAVKVDHSKALTGRWYTGSGIYRPVYLLVSNPTHIPYSGIHFRSKLQNKQSATYTLSIEIETQEKKPIKVKTYLQAPNGSIADTSEKIFVSSADSLCFLSGSIRKPLLWSPDSPNVYTLICQLTRDNKILDECRLPVGFRQLEFNPVSGFLLNGKSLKIKGVCDHHTVGAVGAAVPDDLLHYRLKLLKDMGCNAIRTSHNPFSPAFYNLCDTMGIMVLNEGLDGWNQPKAADDYGNYFDEWWQKDMTDFIKRDRNHPSIIMWSIGNEVTGATPEIQHNLVSLFHQLDPDRPVTQGGTDPTRGMKTDYQKKFNYLDIIGFNGNGEEIGELEHFHKNYPTLCAIATEVPHTYQTRGVYRSQTQWRRRDFPAPWEKGNINWEQFKHRVFPIPDLTEKECFPEESDYPYYQSSYDNASVRISARKSWQRTCSFPWLMGEFRWGSFDYLGEAEWPQRCGNFGIIDIAAIPKDAYFLYQSLWTDKPMVHLLPHWTHPGKEGKTIPVVIYTNCDAVELFINNVSLGSKPYTGEQLIWLVPYSPGKIEARGIKKGKIVATDCYQSAEAPHSVALASNKYSVKAGSDEVIRIEIDITDKNGIPCPYASNELSFHVSGPLRLLGVDNGNPTDMFPYQQPHCRCFRGKCVVLLQSDEEKGKGTLTVQGTKLVEKKLIIEVIEG | soluble
13 | SLAVLGLGYAGLFKSQMESLEEYEAKETELKNTYKQKSIDAASLNNLRDELASIRSAFDIMLKQLPTDAEIPNLVQELHQAGSSNGLRLDSVMPQPPVDDGPIKRLPYSISITGNYEQISQFTRDVGSLSRIITLESLKIAQSPENGGNPDGKSSILNLSAIATTYQAKSVEELAAEAAQNAEQK | soluble
14 | SLDGILDHTMIRVEDLDASLEWYTTHLNYEEKGRWEAETFTNVYLGPEDAGDAAARLELTYNHDGRSYTMGDAWGHIAVRVPDVEAAYDELMQSGVEDYRPPAENPGYAFVTDPDGHEVEIVERDYGTKWSLDHTMLRVEDVNAALGYWIRTFEYEPTGRWEADSFANYFVSPQDAPAEAMDIELTYNYDGRSYTMGDAWGHVAVRCADLQSAWETLQEREAPDYRDPESCDNRYAFTKAPDGHEIEILPTEEG | not soluble
15 | SLETFHFNYTLISICIYLYIYDGSFISLSEDHKPYNKKEKERIYKIGGFVENGRILGYIGVSRSFGDKNYKIKSDCPYNPHETMISCIPDIKIFYANCDDILFLGCDGLFEMLSWNDVAKFTYDCMNRHTLSDAVINILDYALLSGSKDNITIQIIKFFNE | soluble
16 | SLGQRPPIRRIVIDAAIPTKGITIVDVAKELYKVEGVKAVRITVDDVDVDVLGLAIVVEGVDIDYNELEDVLEKVGGVVHSVDEVVVGEYIPEAGRTA | soluble
17 | SLIDTHCHLDLYPKPGTVIAEADKRGMFVIAVTTTPKAFLGNIRMTEGKKRIRVAVGLHPELVAERHREVEDVCKLMAKTKYVGEIGIDGSPPHKSSIKLQTEVFARFLTRASELGGKVLSIHSRGAAALVLDEIERNGHGTLPILHWFSGSKQQVERAAKLGCWFSVGPAMLRSRKGRELLASMPRHRLLTETDGPFATDVDRPLMPWDVSMALPAIADVWGTTPVGVDQVVSANFRELINATEQGRAAAKLVGNC | not soluble
18 | SLIENSHVKKDDIWPSGGQMTVKDLTAKYTEGGNAILENISFSISPGQRVGLLGRTGSGKSTLLSAFLRLLNTEGEIQIDGVSWDSITLEQWRKAFGVIPQKVFIFSGTFRKNLDPYEQWSDQEIWKVADEVGLRSVIEQFPGKLDFVLVDGGCVLSHGHKQLMCLARSVLSKAKILLLDEPSAHLDPVTYQIIRRTLKQAFADCTVILCEARIEAMLECDQFLVIEENKVRQYDSILRLYHYPADRFVAGFIGSPKMNFLPVKVTATAIDQVQVELPMPNRQQVWLPVESRDVQVGANMSLGIRPEHLLPSDIADVILEGEVQVVEQLGNETQIHIQIPSIRQNLVYRQNDVVLVEEGATFAIGLPPERCHLFREDGTACRRLHKEPGV | not soluble
19 | SLIFGKIDYINLLPLHIYLKKYPLPNGYKASMEYKKGVPSKLNKDLFYRRIDAAIISSIESARKKYKNLDLGICANKRVLSVLVEKNTSNAKDPSSATSNALAKVLKQDGKVIIGDKALKLYLKDPSKYIDLCAKWHEKTGLPFVFARFSCVQKKALYKQILKKFPKTKIKIPYYILQKYAKTRDLDVKDVRYYLDEVIYHKISTKEKTALKRFVKACKALNLA | soluble
20 | SLIKFLSALILLLVTTAAQAERIRDLTSVQGVRQNSLIGYGLVVGLDGTGDQTTQTPFTTQTLNNMLSQLGITVPTGTNMQLKNVAAVMVTASLPPFGRQGQTIDVVVSSMGNAKSLRGGTLLMTPLKGVDSQVYALAQGNILVGGAGASAGGSSVQVNQLNGGRITNGAVIERELPSQFGVGNTLNLQLNDEDFSMAQQIADTINRVRGYGSATALDARTIQVRVPSGNSSQVRFLADIQNMQVNVTPQDAKVVINSRTGSVVMNREVTLDSCAIAQGNLSVTVNRQANVSQPDTPFGGGQTVVTPQTQIDLRQSGGSLQSVRSSASLNNVVRALNALGATPMDLMSILQSMQSAGCLRAKLEII | not soluble
21 | SLKAKILFVGPCESGKTVLANFLTESSDITEYNPTQGVRILEFENPHVTSNNKGTGCEFELWDCGGDSKFESCWPALMKDAHGVVIVFNADIPSHLKEIEMWYSCFVQQQFLQDSHCMLVAHHKPGSGGERGSLALSPPLNKLKLVHSNLEEDPEEVRVEFIKYLKSIINSMSESRDREEMLIIT | soluble
22 | SLKKEISILNIPFYNTTQAGFVEELYMAAKNGERRFVVTANPEIVMHARTDKEFEAILGQADYIVPDGIGIIMASEKLGEPLKERVTGYDTMVGLLNKPLSCYFLGAKPEISEVVEAKVREKFPQAVVCGVHHGYFDVLESEAIAKEILVAQPDVIFVALGSPAQEKWILSQIANFTKGIFIGVGGSFDVLTDSVKRAPKIWIKLRLEWVYRLLSNPSRWRRFFAIPQFMLVIRKERKRLKKG | soluble
